Tests used:
[1] = biological target: activatable antibodies comprising substrates selected for cleavage by matriptase (5 substrates tested), having the 3954 mask and C225v5 variant of cetuximab
[2] = biological target: Final pools of substrates selected with recombinant human matriptase-1
[3] = biological target: activatable antibodies comprising substrates selected for cleavage by uPA and matriptase (7 substrates tested), having the 3954 mask and C225v5 variant of cetuximab
[4] = biological target: pool SMP17

B1: Human matriptase-1 (protein)
chain: GSDEKDCDCGLRSFTRQARVVGGTDADEGEWPWQVSLHALGQGHICGASLISPNWLVSAAHCYIDDRGFRYSDPTQWTAFLGLHDQSQRSAPGVQERRLKRIISHPFFNDFTFDYDIALLELEKPAEYSSMVRPICLPDASHVFPAGKAIWVTGWGHTQYGGTGALILQKGEIRVINQTTCENLLPQQITPRMMCVGFLSGGVDSCQGDSGGPLSSVEADGRIFQAGVVSWGDGCAQRNKPGVYTRLPLFRDWIKENTGV
With B1 the kcat/KM [1] was “kcat/KM values ranging from about 6,500 to 100,000 M^-1s^-1 for matriptase (5 substrates tested)”, the “cleavage (flow cytometry of displayed substrate pools)” value [2] was “The pools were cleaved by matriptase-1” and the kcat/KM [3] was “from about 3,000 to 100,000 M^-1s^-1 for matriptase (7 substrates tested)”.

B2: Human plasmin (protein)
chain: KVYLSECKTGNGKNYRGTMSKTKNGITCQKWSSTSPHRPRFSPATHPSEGLEENYCRNPDNDPQGPWCYTTDPEKRYDYCDILECEEECMHCSGENYDGKISKTMSGLECQAWDSQSPHAHGYIPSKFPNKNLKKNYCRNPDRELRPWCFTTDPNKRWELCDIPRCTTPPPSSGPTYQCLKGTGENYRGNVAVTVSGHTCQHWSAQTPHTHNRTPENFPCKNLDENYCRNPDGKRAPWCHTTNSQVRWEYCKIPSCDSSPVSTEQLAPTAPPELTPVVQDCYHGDGQSYRGTSSTTTTGKKCQSWSSMTPHRHQKTPENYPNAGLTMNYCRNPDADKGPWCFTTDPSVRWEYCNLKKCSGTEASVVAPPPVVLLPDVETPSEEDCMFGNGKGYRGKRATTVTGTPCQDWAAQEPHRHSIFTPETNPRAGLEKNYCRNPDGDVGGPWCYTTNPRKLYDYCDVPQCAAPSFDCGKPQVEPKKCPGRVVGGCVAHPHSWPWQVSLRTRFGMHFCGGTLISPEWVLTAAHCLEKSPRPSSYKVILGAHQEVNLEPHVQEIEVSRLFLEPTRKDIALLKLSSPAVITDKVIPACLPSPNYVVADRTECFITGWGETQGTFGAGLLKEAQLPVIENKVCNRYEFLNGRVQSTELCAGHLAGGTDSCQGDSGGPLVCFEKDKYILQGVTSWGLGCARPNKPGVYVRVSRFVTWIEGVMRNN
B2 was tested, and the “cleavage (flow cytometry of displayed substrate pools)” value [2] was “but not by tPA or plasmin”.

B3: Human tPA (protein)
chain: SYQVICRDEKTQMIYQQHQSWLRPVLRSNRVEYCWCNSGRAQCHSVPVKSCSEPRCFNGGTCQQALYFSDFVCQCPEGFAGKCCEIDTRATCYEDQGISYRGTWSTAESGAECTNWNSSALAQKPYSGRRPDAIRLGLGNHNYCRNPDRDSKPWCYVFKAGKYSSEFCSTPACSEGNSDCYFGNGSAYRGTHSLTESGASCLPWNSMILIGKVYTAQNPSAQALGLGKHNYCRNPDGDAKPWCHVLKNRRLTWEYCDVPSCSTCGLRQYSQPQFRIKGGLFADIASHPWQAAIFAKHRRSPGERFLCGGILISSCWILSAAHCFQERFPPHHLTVILGRTYRVVPGEEEQKFEVEKYIVHKEFDDDTYDNDIALLQLKSDSSRCAQESSVVRTVCLPPADLQLPDWTECELSGYGKHEALSPFYSERLKEAHVRLYPSSRCTSQHLLNRTVTDNMLCAGDTRSGGPQANLHDACQGDSGGPLVCLNDGRMTLVGIISWGLGCGQKDVPGVYTKVTNYLDWIRDNMRP
With B3 the “cleavage (flow cytometry of displayed substrate pool)” value [4] was “resistance to tPA” and the “cleavage (flow cytometry of displayed substrate pools)” value [2] was “but not by tPA or plasmin”.

From US20240150402
